Starred links: 1 amine or outer side, 2 acyl side, 3 side chain; linkers in the order of their positions; H or OH if unused. Positions of bridges follow the written chain, without caps; N, C: chain ends. Non-standard residues stand in square brackets, D forms with d. dPhe(4-NHAc) = 4-acetamido-D-phenylalanine, CC(=O)Nc1ccc(C[C@@H](N[*:1])C(=O)[*:2])cc1; dPhe(4-tBu) = CC(C)(C)c1ccc(C[C@@H](N)C(=O)O)cc1; dPhe(4-Br) = N[C@H](Cc1ccc(Br)cc1)C(=O)O; d2Nal = N[C@H](Cc1ccc2ccccc2c1)C(=O)O; NMeR = CN[C@@H](CCCNC(=N)N)C(=O)O; Tic = O=C(O)[C@@H]1Cc2ccccc2CN1; dTic = O=C(O)[C@H]1Cc2ccccc2CN1; Cit = NC(=O)NCCC[C@H](N)C(=O)O
B1: CTX-1248 (peptide)
peptide: Ac-RC[dA][NMeR][dPhe(4-Br)]R[dW]C-NH2
modifications: disulfide 2-8
SMILES: CC(=O)N[C@@H](CCCNC(=N)N)C(=O)N[C@H]1CSSC[C@@H](C(N)=O)NC(=O)[C@@H](Cc2c[nH]c3ccccc23)NC(=O)[C@H](CCCNC(=N)N)NC(=O)[C@@H](Cc2ccc(Br)cc2)NC(=O)[C@H](CCCNC(=N)N)N(C)C(=O)[C@@H](C)NC1=O
B2: CTX-1255 (peptide)
peptide: Ac-RC[dA]R[dPhe(4-Br)]R[dF]C-NH2
modifications: disulfide 2-8
SMILES: CC(=O)N[C@@H](CCCNC(=N)N)C(=O)N[C@H]1CSSC[C@@H](C(N)=O)NC(=O)[C@@H](Cc2ccccc2)NC(=O)[C@H](CCCNC(=N)N)NC(=O)[C@@H](Cc2ccc(Br)cc2)NC(=O)[C@H](CCCNC(=N)N)NC(=O)[C@@H](C)NC1=O
B3: CTX-1254 (peptide)
peptide: Ac-RC[dA]R[dPhe(4-Br)]R[d2Nal]C-NH2
modifications: disulfide 2-8
SMILES: CC(=O)N[C@@H](CCCNC(=N)N)C(=O)N[C@H]1CSSC[C@@H](C(N)=O)NC(=O)[C@@H](Cc2ccc3ccccc3c2)NC(=O)[C@H](CCCNC(=N)N)NC(=O)[C@@H](Cc2ccc(Br)cc2)NC(=O)[C@H](CCCNC(=N)N)NC(=O)[C@@H](C)NC1=O
B4: CTX-1242 (peptide)
peptide: Ac-RC[dA]R[dPhe(4-tBu)]R[dW]C-NH2
modifications: disulfide 2-8
SMILES: CC(=O)N[C@@H](CCCNC(=N)N)C(=O)N[C@H]1CSSC[C@@H](C(N)=O)NC(=O)[C@@H](Cc2c[nH]c3ccccc23)NC(=O)[C@H](CCCNC(=N)N)NC(=O)[C@@H](Cc2ccc(C(C)(C)C)cc2)NC(=O)[C@H](CCCNC(=N)N)NC(=O)[C@@H](C)NC1=O
B5: CTX-1249 (peptide)
peptide: Ac-RC[dA]P[dPhe(4-Br)]R[dW]C-NH2
modifications: disulfide 2-8
SMILES: CC(=O)N[C@@H](CCCNC(=N)N)C(=O)N[C@H]1CSSC[C@@H](C(N)=O)NC(=O)[C@@H](Cc2c[nH]c3ccccc23)NC(=O)[C@H](CCCNC(=N)N)NC(=O)[C@@H](Cc2ccc(Br)cc2)NC(=O)[C@@H]2CCCN2C(=O)[C@@H](C)NC1=O
B6: CTX-1253 (peptide)
peptide: Ac-RC[dA]R[dPhe(4-Br)][Cit][dW]C-NH2
modifications: disulfide 2-8
SMILES: CC(=O)N[C@@H](CCCNC(=N)N)C(=O)N[C@H]1CSSC[C@@H](C(N)=O)NC(=O)[C@@H](Cc2c[nH]c3ccccc23)NC(=O)[C@H](CCCNC(N)=O)NC(=O)[C@@H](Cc2ccc(Br)cc2)NC(=O)[C@H](CCCNC(=N)N)NC(=O)[C@@H](C)NC1=O
B7: CTX-1260 (peptide)
peptide: Ac-RC[dA]R[dPhe(4-Br)]R[dA]C-NH2
modifications: disulfide 2-8
SMILES: CC(=O)N[C@@H](CCCNC(=N)N)C(=O)N[C@H]1CSSC[C@@H](C(N)=O)NC(=O)[C@@H](C)NC(=O)[C@H](CCCNC(=N)N)NC(=O)[C@@H](Cc2ccc(Br)cc2)NC(=O)[C@H](CCCNC(=N)N)NC(=O)[C@@H](C)NC1=O

biological target: T1, human MC4R receptor (human, UniProt P32245 1-332); test: cell-based or functional assay
T1 sequence (P32245 whole entry): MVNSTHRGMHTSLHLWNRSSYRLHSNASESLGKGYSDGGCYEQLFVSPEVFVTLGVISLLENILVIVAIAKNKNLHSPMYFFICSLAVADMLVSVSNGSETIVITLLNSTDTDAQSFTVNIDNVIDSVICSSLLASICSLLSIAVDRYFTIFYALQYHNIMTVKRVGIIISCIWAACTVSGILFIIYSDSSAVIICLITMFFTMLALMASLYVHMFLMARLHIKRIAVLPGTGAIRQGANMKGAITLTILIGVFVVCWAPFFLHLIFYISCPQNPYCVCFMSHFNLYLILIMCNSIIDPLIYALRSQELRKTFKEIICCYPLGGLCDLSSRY

Row | Binder | MC4R selectivity vs MC1R | MC4R selectivity vs MC3R
1 | Ac-RC[dA]RF[NMeR][dW]C-NH2 (disulfide 2-8; not fully specified (residue 5)) [CTX-1251] | 0.11 | 3.73
2 | B1 | 1.31 | 1.36
3 | B2 | 0.05 | 0.24
4 | Ac-RC[dA]R[dPhe(4-Br)]R[dTic]C-NH2 (disulfide 2-8) [CTX-1256] | 0.003 | 0.08
5 | B3 | 0.26 | 2.19
6 | Ac-RC[dA]R[dPhe(4-Br)][dR][dW]C-NH2 (disulfide 2-8) [CTX-1252] | 0.04 | 0.06
7 | Ac-RC[dA]R[dPhe(4-Br)]R[Tic]C-NH2 (disulfide 2-8) [CTX-1259] | 0.01 | 0.12
8 | B4 | 0.64 | 0.08
9 | Ac-RC[dA]R[dPhe(4-NHAc)]R[dW]C-NH2 (disulfide 2-8) [CTX-1245] | 0.08 | 0.02
10 | Ac-RC[dA][dR][dPhe(4-Br)]R[dW]C-NH2 (disulfide 2-8) [CTX-1250] | 1.06 | 11
11 | B5 | 5.08 | 0.45
12 | B6 | 0.57 | 0.53
13 | B7 | 0.01 | 0.05

biological target: human MC3R (human, UniProt P41968 1-323); test: cell-based or functional assay
Sequence (P41968 whole entry): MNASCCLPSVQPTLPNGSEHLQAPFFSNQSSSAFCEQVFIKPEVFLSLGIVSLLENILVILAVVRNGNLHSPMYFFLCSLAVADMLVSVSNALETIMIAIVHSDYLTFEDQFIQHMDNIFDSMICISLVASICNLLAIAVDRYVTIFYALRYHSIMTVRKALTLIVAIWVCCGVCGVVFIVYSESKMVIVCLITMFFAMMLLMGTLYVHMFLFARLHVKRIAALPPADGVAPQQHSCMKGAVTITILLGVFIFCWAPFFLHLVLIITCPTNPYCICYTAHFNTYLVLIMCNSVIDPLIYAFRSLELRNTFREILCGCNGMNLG

Row | Binder | % max activation | cAMP EC50
14 | Ac-RC[dA]RF[NMeR][dW]C-NH2 (disulfide 2-8; not fully specified (residue 5)) [CTX-1251] | 30% | 93 nM
15 | B1 | 18% | 2.8 nM
16 | B2 | 28% | 7.5 nM
17 | Ac-RC[dA]R[dPhe(4-Br)]R[dTic]C-NH2 (disulfide 2-8) [CTX-1256] | 17% | 592 nM
18 | B3 | 5.5% | 9.2 nM
19 | Ac-RC[dA]R[dPhe(4-Br)][dR][dW]C-NH2 (disulfide 2-8) [CTX-1252] | 1.1% | 57 nM
20 | Ac-RC[dA]R[dPhe(4-Br)]R[Tic]C-NH2 (disulfide 2-8) [CTX-1259] | 27% | 146 nM
21 | B4 | 2.8% | 2.2 nM
22 | Ac-RC[dA]R[dPhe(4-NHAc)]R[dW]C-NH2 (disulfide 2-8) [CTX-1245] | 6.3% | 73 nM
23 | Ac-RC[dA][dR][dPhe(4-Br)]R[dW]C-NH2 (disulfide 2-8) [CTX-1250] | 10% | 2090 nM
24 | B5 | 1.9% | 6.1 nM
25 | B6 | 9.2% | 4 nM
26 | B7 | 13% | 239 nM

biological target: T1, human MC4R receptor; test: cell-based or functional assay; remark: another data set of the same source

Row | Binder | % max activation | cAMP EC50
27 | Ac-RC[dA]RF[NMeR][dW]C-NH2 (disulfide 2-8; not fully specified (residue 5)) [CTX-1251] | 31% | 25 nM
28 | B1 | 47% | 2 nM
29 | B2 | 60% | 31 nM
30 | Ac-RC[dA]R[dPhe(4-Br)]R[dTic]C-NH2 (disulfide 2-8) [CTX-1256] | 29% | 7240 nM
31 | B3 | 22% | 4.2 nM
32 | Ac-RC[dA]R[dPhe(4-Br)][dR][dW]C-NH2 (disulfide 2-8) [CTX-1252] | 4.4% | 885 nM
33 | Ac-RC[dA]R[dPhe(4-Br)]R[Tic]C-NH2 (disulfide 2-8) [CTX-1259] | 70% | 1250 nM
34 | B4 | 5.8% | 26 nM
35 | Ac-RC[dA]R[dPhe(4-NHAc)]R[dW]C-NH2 (disulfide 2-8) [CTX-1245] | 34% | 4450 nM
36 | Ac-RC[dA][dR][dPhe(4-Br)]R[dW]C-NH2 (disulfide 2-8) [CTX-1250] | 8.7% | 185 nM
37 | B5 | 22% | 14 nM
38 | B6 | 58% | 7.6 nM
39 | B7 | 38% | 4930 nM

From patent US20240391954A1, “MC4R AGONIST PEPTIDES” (The Regents of the University of Michigan, priority 2021, published 2024)
